These results are taken from patent US20130115677.

Residue numbers refer to the chain shown, from its start.

Common to all, as to test: cleavage_in_vitro
Data set [1] relates to T1, AvrII (Anabaena variabilis).
T1 sequence: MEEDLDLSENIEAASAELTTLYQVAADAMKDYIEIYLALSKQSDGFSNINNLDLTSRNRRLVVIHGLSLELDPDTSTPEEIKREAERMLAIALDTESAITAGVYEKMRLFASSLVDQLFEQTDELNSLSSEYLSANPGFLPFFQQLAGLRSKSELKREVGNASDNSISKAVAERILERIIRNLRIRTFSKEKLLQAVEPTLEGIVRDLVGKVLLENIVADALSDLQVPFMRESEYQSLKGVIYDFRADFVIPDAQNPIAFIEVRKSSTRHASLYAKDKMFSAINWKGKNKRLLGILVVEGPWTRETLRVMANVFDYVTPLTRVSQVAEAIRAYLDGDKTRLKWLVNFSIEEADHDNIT
To be noted: NEB4, 37 C, Mg2+.

Data set [2] concerns T2, AvrII-HF Y104F (Anabaena variabilis).
T2 sequence: T1 sequence with Y104F
To be noted: NEB4, 37 C, Mg2+.

In data set [3] the target is T3, SalI (Streptomyces albus G) (UniProt Q53608).
T3 sequence: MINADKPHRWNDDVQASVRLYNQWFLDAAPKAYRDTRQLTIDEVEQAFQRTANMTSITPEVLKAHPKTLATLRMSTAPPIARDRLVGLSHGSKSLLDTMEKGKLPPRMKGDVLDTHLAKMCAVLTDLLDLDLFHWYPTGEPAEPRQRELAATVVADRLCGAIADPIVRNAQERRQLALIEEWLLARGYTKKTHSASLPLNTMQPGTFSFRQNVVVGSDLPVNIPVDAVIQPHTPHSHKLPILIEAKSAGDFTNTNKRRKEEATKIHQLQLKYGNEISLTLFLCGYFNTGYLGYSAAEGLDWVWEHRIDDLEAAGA
Conditions: NEB4, 37 C, Mg2+.

The target of data set [4] is T4, SalI-HF R107A (Streptomyces albus G) (UniProt Q53608).
T4 sequence: T3 sequence with R107A
Conditions: NEB4, 37 C, Mg2+.

Data set [5] has as its target T5, PvuII-HF T46G (Proteus vulgaris) (UniProt P23657).
T5 sequence: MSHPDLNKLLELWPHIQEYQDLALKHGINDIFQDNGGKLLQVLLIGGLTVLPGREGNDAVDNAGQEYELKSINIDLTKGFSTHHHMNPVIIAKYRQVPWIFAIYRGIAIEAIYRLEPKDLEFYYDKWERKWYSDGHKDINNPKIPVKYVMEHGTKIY
Conditions: NEB4, 37 C, Mg2+.

Data set [6] relates to T6, BspQI-HF K279P/R388F (Bacillus sphaericus).
T6 sequence: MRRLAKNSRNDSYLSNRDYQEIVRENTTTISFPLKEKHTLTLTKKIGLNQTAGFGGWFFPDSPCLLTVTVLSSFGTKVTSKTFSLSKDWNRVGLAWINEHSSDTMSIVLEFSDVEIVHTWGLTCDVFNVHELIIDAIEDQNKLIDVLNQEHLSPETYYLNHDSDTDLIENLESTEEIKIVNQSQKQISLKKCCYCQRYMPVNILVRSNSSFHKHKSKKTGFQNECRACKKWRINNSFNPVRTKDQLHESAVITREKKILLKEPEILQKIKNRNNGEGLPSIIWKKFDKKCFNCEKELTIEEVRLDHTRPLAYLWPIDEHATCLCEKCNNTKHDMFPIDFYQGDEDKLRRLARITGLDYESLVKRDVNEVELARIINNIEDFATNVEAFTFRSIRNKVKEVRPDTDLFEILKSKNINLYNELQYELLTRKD
Conditions: NEB4, 50 C, Mg2+.

For T7 DNA, the activity (fidelity index) in data set [1] is 32; in data set [2], over 1000.

For lambda DNA HindIII digest, the results for the activity (fidelity index) in data set [3] and in data set [4] were 1 and over 32000, respectively.

For the substance pBR322, the activity (fidelity index) in data set [5] was 500.

pUC19: the activity (fidelity index) in data set [6] is over 4000.
